B1: SALL3-002 (peptide)
peptide: QYAAAITNGL
notes: also called QYAAAITNGL
B2: TRI-005 (peptide)
peptide: NYFLDPVTI
notes: also called NYFLDPVTI
B3: MAGEB17-001 (peptide)
peptide: KYKQHFPEI
notes: also called KYKQHFPEI
B4: PGR-003 (peptide)
peptide: LHLYCLNTF
notes: also called LHLYCLNTF
B5: NLRP4-006 (peptide)
peptide: VYSSFVFNL
notes: also called VYSSFVFNL
B6: KRT33A-001 (peptide)
peptide: MSYSCGLPSL
notes: also called MSYSCGLPSL
B7: NMUR2-004 (peptide)
peptide: IHGIKFHYF
notes: also called IHGIKFHYF
B8: NLRP2-010 (peptide)
peptide: RYKMLIPF
notes: also called RYKMLIPF
B9: TRPM8-008 (peptide)
peptide: GYFLAQYLM
notes: also called GYFLAQYLM
B10: KLHDC7B-005 (peptide)
peptide: DIYVTGGHLF
notes: also called DIYVTGGHLF
B11: HTR7-002 (peptide)
peptide: YIPMSVMLF
notes: also called YIPMSVMLF
B12: CHRNA9-003 (peptide)
peptide: KYYIATMAL
notes: also called KYYIATMAL
B13: KHDC1L-001 (peptide)
peptide: LSCTATPLF
notes: also called LSCTATPLF
B14: FLT3-011 (peptide)
peptide: IYIIMQSCW
notes: also called IYIIMQSCW
B15: CYP1A1-001 (peptide)
peptide: ISMSATEFLL
notes: also called ISMSATEFLL
B16: COL11A1-004 (peptide)
peptide: KTKRWLWDF
notes: also called KTKRWLWDF
B17: QRFPR-003 (peptide)
peptide: MMVTVVALF
notes: also called MMVTVVALF
B18: HMCN1-006 (peptide)
peptide: EAYSYPPATI
notes: also called EAYSYPPATI
B19: MMP13-005 (peptide)
peptide: MHPGVLAAFLF
notes: also called MHPGVLAAFLF
B20: HEPHL-007 (peptide)
peptide: YYIGIVEEY
notes: also called YYIGIVEEY
B21: DCT-002 (peptide)
peptide: MYNMVPFF
notes: also called MYNMVPFF
B22: MRGPRX4-001 (peptide)
peptide: FIPVAWLIF
notes: also called FIPVAWLIF
B23: SOX14-002 (peptide)
peptide: YSLLDPAQF
notes: also called YSLLDPAQF
B24: MMP11-022 (peptide)
peptide: KALMSAFYTF
notes: also called KALMSAFYTF
B25: FCRL5-009 (peptide)
peptide: VLAPVSGQF
notes: also called VLAPVSGQF
B26: ESR1-010 (peptide)
peptide: RSMEHPGKLLF
notes: also called RSMEHPGKLLF
B27: NLRP4-007 (peptide)
peptide: VYSSFVFNLF
notes: also called VYSSFVFNLF
B28: ANO7-003 (peptide)
peptide: LFDHGGTVFF
notes: also called LFDHGGTVFF
B29: MYCN-002 (peptide)
peptide: FYPDEDDFYF
notes: also called FYPDEDDFYF
B30: DDX53-001 (peptide)
peptide: SYLKDPMIV
notes: also called SYLKDPMIV

Biological target: T1, HLA-A*24
T1 construct: Monomers captured on streptavidin plates; also called peptide-receptive MHC molecules; MHC complexes
Assay: UV peptide-exchange ELISA (anti-b2m); yield grade +++ = >50
Excerpt: Candidate peptides for T cell based therapies according to the present invention were further tested for their MHC binding capacity (affinity). The individual peptide-MHC complexes were produced by UV-ligand exchange, where a UV-sensitive peptide is cleaved upon UV-irradiation, and exchanged with the peptide of interest as analyzed. Only peptide candidates that can effectively bind and stabilize the peptide-receptive MHC molecules prevent dissociation of the MHC complexes. To determine the yield of the exchange reaction, an ELISA was performed based on the detection of the light chain (p2m) of stabilized MHC complexes. The assay was performed as generally described in Rodenko et al. (Rodenko et al., 2006)
96 well MAXISorp plates (NUNC) were coated over night with 2 ug/ml streptavidin in PBS at room temperature, washed 4× and blocked for 1 h at 37° C. in 2% BSA containing blocking buffer. Refolded HLA-A*02:01/MLA-001 monomers served as standards, covering the range of 15-500 ng/ml. Peptide-MHC monomers of the UV-exchange reaction were diluted 100-fold in blocking buffer. Samples were incubated for 1 h at 37° C., washed four times, incubated with 2 ug/ml HRP conjugated anti-β2m for 1h at 37° C., washed again and detected with TMB solution that is stopped with […]. Absorption was measured at 450 nm. Candidate peptides that show a high exchange yield (preferably higher than 50%, most preferred higher than 75%) are generally preferred for a generation and production of antibodies or fragments thereof, and/or T cell receptors or fragments thereof, as they show sufficient avidity to the MHC molecules and prevent dissociation of the MHC complexes.

Peptide exchange yield, 50 to 75%:
B1
B2
B3
B4
B5
B6
B7
B8
B9
B10
B11
B12
B13
B14
B15
B16
B17
B18
B19
B20
B21
B22
B23
B24
B25
B26
B27
B28
B29
B30
